{
  "source": "the supplement of paper PMC5998384",
  "key": {"HeLa Kyoto [1]": {"test_system": "HeLa Kyoto", "test": "solubility in G1/S (NP-40 vs SDS abundance) (log2 ratio); higher = more soluble", "conditions": "cell cycle stage: G1/S"}, "HeLa Kyoto [2]": {"test_system": "HeLa Kyoto", "test": "melting temperature (median over replicates), in situ; higher = more thermally stable"}, "HeLa Kyoto [3]": {"test_system": "HeLa Kyoto", "test": "solubility change mitosis vs G1/S (difference of NP-40 vs SDS log2 ratios) (log2 ratio difference); higher = more soluble in mitosis"}, "HeLa Kyoto [4]": {"test_system": "HeLa Kyoto", "test": "thermal stability score vs G1/S (z-score of summed log2 fold changes over temperatures); higher = more thermally stable than in G1/S"}, "[5]": {"conditions": "cell cycle stage: early G1 (4.5 h after nocodazole release)"}},
  "data": [
    {"sequence": "MKMAAPTANKAASLGCNNKPAFPELDFRSGARVEELNKLIQEFTKHDQREYDDQRALEIHTAKDFIFSMLGMVQKLDQKLPVANEYLLLSGGVREGVVDLDLDELNVYARGTDYDMDFTLLVPALKLHDRNQPVTLDMRHSALCHSWLSLRLFDEGTISKWKDCCTIVDHINGATNYFFSPTKVADWFYDSISIVLSEIQKKPQRGMPKVEKVEKNGTIISIILGVGSSRMLYDIVPVVSFKGWPAVAQSWLMENHFWDGKITEEEVISGFYLVPACSYKGKKDNEWRLSFARSEVQLKKCISSSLMQAYQACKAIIIKLLSRPKAISPYHLRSMMLWACDRLPANYLAQEDYAAHFLLGLIDDLQHCLVNKMCPNYFIPQCNMLEHLSEETVMLHARKLSSVRSDPAEHLRTAIEHVKAANRLTLELQRRGSTTSIPSPQSDGGDPNQPDDRLAKKLQQLVTENPGKSISVFINPDDVTRPHFRIDDKFF [MB21D2]", "values": [
      {"measurement": "solubility in G1/S (log2)", "setting": "HeLa Kyoto [1]", "value": 0.0815},
      {"measurement": "melting temperature", "setting": "HeLa Kyoto [2]; cell cycle stage: G1/S", "value": 56.3, "unit": "°C"},
      {"measurement": "melting temperature", "setting": "HeLa Kyoto [2]; cell cycle stage: mitosis", "value": 56.5, "unit": "°C"},
      {"measurement": "solubility change mitosis (log2)", "setting": "HeLa Kyoto [3]", "value": -0.0032},
      {"measurement": "thermal stability score", "setting": "HeLa Kyoto [4]; [5]", "value": 1.1},
      {"measurement": "thermal stability score", "setting": "HeLa Kyoto [4]; cell cycle stage: mitosis", "value": -0.608}
    ]},
    {"sequence": "MKMADAKQKRNEQLKRWIGSETDLEPPVVKRQKTKVKFDDGAVFLAACSSGDTDEVLKLLHRGADINYANVDGLTALHQACIDDNVDMVKFLVENGANINQPDNEGWIPLHAAASCGYLDIAEFLIGQGAHVGAVNSEGDTPLDIAEEEAMEELLQNEVNRQGVDIEAARKEEERIMLRDARQWLNSGHINDVRHAKSGGTALHVAAAKGYTEVLKLLIQAGYDVNIKDYDGWTPLHAAAHWGKEEACRILVDNLCDMEMVNKVGQTAFDVADEDILGYLEELQKKQNLLHSEKRDKKSPLIESTANMDNNQSQKTFKNKETLIIEPEKNASRIESLEQEKVDEEEEGKKDESSCSSEEDEEDDSESEAETDKTKPLASVTNANTSSTQAAPVAVTTPTVSSGQATPTSPIKKFPTTATKISPKEEERKDESPATWRLGLRKTGSYGALAEITASKEGQKEKDTAGVTRSASSPRLSSSLDNKEKEKDSKGTRLAYVAPTIPRRLASTSDIEEKENRDSSSLRTSSSYTRRKWEDDLKKNSSVNEGSTYHKSCSFGRRQDDLISSSVPSTTSTPTVTSAAGLQKSLLSSTSTTTKITTGSSSAGTQSSTSNRLWAEDSTEKEKDSVPTAVTIPVAPTVVNAAASTTTLTTTTAGTVSSTTEVRERRRSYLTPVRDEESESQRKARSRQARQSRRSTQGVTLTDLQEAEKTIGRSRSTRTREQENEEKEKEEKEKQDKEKQEEKKESETSREDEYKQKYSRTYDETYQRYRPVSTSSSTTPSSSLSTMSSSLYASSQLNRPNSLVGITSAYSRGITKENEREGEKREEEKEGEDKSQPKSIRERRRPREKRRSTGVSFWTQDSDENEQEQQSDTEEGSNKKETQTDSISRYETSSTSAGDRYDSLLGRSGSYSYLEERKPYSSRLEKDDSTDFKKLYEQILAENEKLKAQLHDTNMELTDLKLQLEKATQRQERFADRSLLEMEKRERRALERRISEMEEELKMLPDLKADNQRLKDENGALIRVISKLSK [PPP1R12A]", "values": [
      {"measurement": "solubility in G1/S (log2)", "setting": "HeLa Kyoto [1]", "value": -0.42},
      {"measurement": "melting temperature", "setting": "HeLa Kyoto [2]; cell cycle stage: G1/S", "value": 50.4, "unit": "°C"},
      {"measurement": "melting temperature", "setting": "HeLa Kyoto [2]; cell cycle stage: mitosis", "value": 50.2, "unit": "°C"},
      {"measurement": "solubility change mitosis (log2)", "setting": "HeLa Kyoto [3]", "value": 0.0601},
      {"measurement": "thermal stability score", "setting": "HeLa Kyoto [4]; [5]", "value": -1.62},
      {"measurement": "thermal stability score", "setting": "HeLa Kyoto [4]; cell cycle stage: mitosis", "value": -0.382}
    ]},
    {"sequence": "MKMADRSGKIIPGQVYIEVEYDYEYEAKDRKIVIKQGERYILVKKTNDDWWQVKPDENSKAFYVPAQYVKEVTRKALMPPVKQVAGLPNNSTKIMQSLHLQRSTENVNKLPELSSFGKPSSSVQGTGLIRDANQNFGPSYNQGQTVNLSLDLTHNNGKFNNDSHSPKVSSQNRTRSFGHFPGPEFLDVEKTSFSQEQSCDSAGEGSERIHQDSESGDELSSSSTEQIRATTPPNQGRPDSPVYANLQELKISQSALPPLPGSPAIQINGEWETHKDSSGRCYYYNRGTQERTWKPPRWTRDASISKGDFQNPGDQELLSSEENYYSTSYSQSDSQCGSPPRGWSEELDERGHTLYTSDYTNEKWLKHVDDQGRQYYYSADGSRSEWELPKYNASSQQQREIIKSRSLDRRLQEPIVLTKWRHSTIVLDTNDKESPTASKPCFPENESSPSSPKHQDTASSPKDQEKYGLLNVTKIAENGKKVRKNWLSSWAVLQGSSLLFTKTQGSSTSWFGSNQSKPEFTVDLKGATIEMASKDKSSKKNVFELKTRQGTELLIQSDNDTVINDWFKVLSSTINNQAVETDEGIEEEIPDSPGIEKHDKEKEQKDPKKLRSFKVSSIDSSEQKKTKKNLKKFLTRRPTLQAVREKGYIKDQVFGSNLANLCQRENGTVPKFVKLCIEHVEEHGLDIDGIYRVSGNLAVIQKLRFAVNHDEKLDLNDSKWEDIHVITGALKMFFRELPEPLFTFNHFNDFVNAIKQEPRQRVAAVKDLIRQLPKPNQDTMQILFRHLRRVIENGEKNRMTYQSIAIVFGPTLLKPEKETGNIAVHTVYQNQIVELILLELSSIFGR [ARHGAP12]", "values": [
      {"measurement": "solubility in G1/S (log2)", "setting": "HeLa Kyoto [1]", "value": -0.0332},
      {"measurement": "melting temperature", "setting": "HeLa Kyoto [2]; cell cycle stage: G1/S", "value": 50.7, "unit": "°C"},
      {"measurement": "melting temperature", "setting": "HeLa Kyoto [2]; cell cycle stage: mitosis", "value": 50.1, "unit": "°C"},
      {"measurement": "solubility change mitosis (log2)", "setting": "HeLa Kyoto [3]", "value": -0.246},
      {"measurement": "thermal stability score", "setting": "HeLa Kyoto [4]; [5]", "value": -0.591},
      {"measurement": "thermal stability score", "setting": "HeLa Kyoto [4]; cell cycle stage: mitosis", "value": -0.433}
    ]},
    {"sequence": "MKPAAREARLPPRSPGLRWALPLLLLLLRLGQILCAGGTPSPIPDPSVATVATGENGITQISSTAESFHKQNGTGTPQVETNTSEDGESSGANDSLRTPEQGSNGTDGASQKTPSSTGPSPVFDIKAVSISPTNVILTWKSNDTAASEYKYVVKHKMENEKTITVVHQPWCNITGLRPATSYVFSITPGIGNETWGDPRVIKVITEPIPVSDLRVALTGVRKAALSWSNGNGTASCRVLLESIGSHEELTQDSRLQVNISGLKPGVQYNINPYLLQSNKTKGDPLGTEGGLDASNTERSRAGSPTAPVHDESLVGPVDPSSGQQSRDTEVLLVGLEPGTRYNATVYSQAANGTEGQPQAIEFRTNAIQVFDVTAVNISATSLTLIWKVSDNESSSNYTYKIHVAGETDSSNLNVSEPRAVIPGLRSSTFYNITVCPVLGDIEGTPGFLQVHTPPVPVSDFRVTVVSTTEIGLAWSSHDAESFQMHITQEGAGNSRVEITTNQSIIIGGLFPGTKYCFEIVPKGPNGTEGASRTVCNRTVPSAVFDIHVVYVTTTEMWLDWKSPDGASEYVYHLVIESKHGSNHTSTYDKAITLQGLIPGTLYNITISPEVDHVWGDPNSTAQYTRPSNVSNIDVSTNTTAATLSWQNFDDASPTYSYCLLIEKAGNSSNATQVVTDIGITDATVTELIPGSSYTVEIFAQVGDGIKSLEPGRKSFCTDPASMASFDCEVVPKEPALVLKWTCPPGANAGFELEVSSGAWNNATHLESCSSENGTEYRTEVTYLNFSTSYNISITTVSCGKMAAPTRNTCTTGITDPPPPDGSPNITSVSHNSVKVKFSGFEASHGPIKAYAVILTTGEAGHPSADVLKYTYEDFKKGASDTYVTYLIRTEEKGRSQSLSEVLKYEIDVGNESTTLGYYNGKLEPLGSYRACVAGFTNITFHPQNKGLIDGAESYVSFSRYSDAVSLPQDPGVICGAVFGCIFGALVIVTVGGFIFWRKKRKDAKNNEVSFSQIKPKKSKLIRVENFEAYFKKQQADSNCGFAEEYEDLKLVGISQPKYAAELAENRGKNRYNNVLPYDISRVKLSVQTHSTDDYINANYMPGYHSKKDFIATQGPLPNTLKDFWRMVWEKNVYAIIMLTKCVEQGRTKCEEYWPSKQAQDYGDITVAMTSEIVLPEWTIRDFTVKNIQTSESHPLRQFHFTSWPDHGVPDTTDLLINFRYLVRDYMKQSPPESPILVHCSAGVGRTGTFIAIDRLIYQIENENTVDVYGIVYDLRMHRPLMVQTEDQYVFLNQCVLDIVRSQKDSKVDLIYQNTTAMTIYENLAPVTTFGKTNGYIA [PTPRJ]", "values": [
      {"measurement": "solubility in G1/S (log2)", "setting": "HeLa Kyoto [1]", "value": -0.204},
      {"measurement": "melting temperature", "setting": "HeLa Kyoto [2]; cell cycle stage: G1/S", "value": 50.6, "unit": "°C"},
      {"measurement": "melting temperature", "setting": "HeLa Kyoto [2]; cell cycle stage: mitosis", "value": 50, "unit": "°C"},
      {"measurement": "solubility change mitosis (log2)", "setting": "HeLa Kyoto [3]", "value": 0.155},
      {"measurement": "thermal stability score", "setting": "HeLa Kyoto [4]; [5]", "value": 3.12},
      {"measurement": "thermal stability score", "setting": "HeLa Kyoto [4]; cell cycle stage: mitosis", "value": -2.28}
    ]}
  ]
}
